Reference: article doi:10.1101/2022.11.15.516577
Read-outs that look alike come from different tables or passages of the source.

Key:
Experiment in all cases: single-molecule TIRF colocalisation with deconvolution of colocalisation times
[1] = biological target: N-terminally SNAP-tagged human β2AR carrying the vasopressin V2 receptor C-tail (SNAP-β2V2)
[2] = biological target: N-terminally SNAP-tagged human β2AR carrying the vasopressin V2 receptor C-tail (SNAP-β2V2); remark: listed apart in the source
[3] = biological target: N-terminally SNAP-tagged human β2AR carrying the vasopressin V2 receptor C-tail (SNAP-β2V2); remark: listed apart in the source

- average interaction time [1]: 1 s
- average interaction time [2]: 1 s
- average interaction time [3]: 1 s
Substance: C-terminally Halo-tagged bovine β-arrestin 2 (βArr2-Halo) (from UniProt P32120-2 1-409) (natural protein)
